Test results published in patent US5780025A, “Compositions and methods for the synthesis and assay of enkephalinase” (Genentech, Inc., priority 1993, dated 1998).

Tests used:
[1] = target: T1, ^3 H-(DAla^2, Leu^5)enkephalin (Rattus norvegicus, UniProt P07861); test: Assay of enkephalinase activity with tritiated enkephalin substrate (Llorens et al. 1982); type: biochemical
T1 construct: Rat kidney enkephalinase was purified to apparent homogeneity; from tissue; host or cells: rat kidney (male rats, membrane fraction, Triton X-100 solubilised)
T1 sequence (P07861 1-750): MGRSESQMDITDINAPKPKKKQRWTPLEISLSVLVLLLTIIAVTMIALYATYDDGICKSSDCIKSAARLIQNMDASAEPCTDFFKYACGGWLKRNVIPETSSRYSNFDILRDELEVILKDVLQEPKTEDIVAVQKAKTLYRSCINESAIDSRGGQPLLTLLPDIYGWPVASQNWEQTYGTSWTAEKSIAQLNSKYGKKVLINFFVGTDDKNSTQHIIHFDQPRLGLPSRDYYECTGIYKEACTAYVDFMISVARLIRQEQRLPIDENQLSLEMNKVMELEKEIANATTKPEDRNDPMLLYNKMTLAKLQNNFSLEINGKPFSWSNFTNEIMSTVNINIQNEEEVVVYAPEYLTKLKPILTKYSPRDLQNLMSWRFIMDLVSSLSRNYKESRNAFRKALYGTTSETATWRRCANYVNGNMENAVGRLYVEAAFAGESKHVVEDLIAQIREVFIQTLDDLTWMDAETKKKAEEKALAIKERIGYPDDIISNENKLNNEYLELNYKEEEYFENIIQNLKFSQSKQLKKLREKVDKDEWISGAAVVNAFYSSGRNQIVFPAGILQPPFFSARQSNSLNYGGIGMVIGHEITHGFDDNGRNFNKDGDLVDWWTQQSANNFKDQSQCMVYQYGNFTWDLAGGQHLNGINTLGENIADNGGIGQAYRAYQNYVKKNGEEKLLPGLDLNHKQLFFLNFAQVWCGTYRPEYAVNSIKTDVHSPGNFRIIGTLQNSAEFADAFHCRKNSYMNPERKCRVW
Source text: As used herein, enkephalinase or enkephalinase derivatives refers to proteins which are enzymatically active or are immunologically cross-reactive with enzymatically active enkephalinase. Enzymatically functional enkephalinase is capable of cleaving the Gly^3 -Phe^4 amide bond of ^3 H-(DAla^2, Leu^5)enkephalin in an assay as described by Llorens et al. (1982).
"Essentially free from" or "essentially pure" when used to describe the state of enkephalinase produced by the invention means free of protein or other materials normally associated with enkephalinase in its in vivo physiological milieu as for example when enkephalinase is obtained from blood and/or tissues by extraction and purification.
Enkephalinase activity was measured as described by Llorens et al. (1982) using ^3 H-(DAla^2, Leu^5)enkephalin as a substrate. […]

[2] = target: T2, dansyl-Gly-Trp-Gly or dansyl-Gly-Tyr-Gly (Rattus norvegicus, UniProt P07861); test: Enkephalinase activity of expressed rat enkephalinase material; type: biochemical; conditions: rat enkephalinase cDNA expression products
T2 construct: made in house; host or cells: human embryonic kidney (293) cells (pCISrENK); also rabbit reticulocyte lysate in vitro translation (prENKsense)
T2 sequence (P07861 1-750): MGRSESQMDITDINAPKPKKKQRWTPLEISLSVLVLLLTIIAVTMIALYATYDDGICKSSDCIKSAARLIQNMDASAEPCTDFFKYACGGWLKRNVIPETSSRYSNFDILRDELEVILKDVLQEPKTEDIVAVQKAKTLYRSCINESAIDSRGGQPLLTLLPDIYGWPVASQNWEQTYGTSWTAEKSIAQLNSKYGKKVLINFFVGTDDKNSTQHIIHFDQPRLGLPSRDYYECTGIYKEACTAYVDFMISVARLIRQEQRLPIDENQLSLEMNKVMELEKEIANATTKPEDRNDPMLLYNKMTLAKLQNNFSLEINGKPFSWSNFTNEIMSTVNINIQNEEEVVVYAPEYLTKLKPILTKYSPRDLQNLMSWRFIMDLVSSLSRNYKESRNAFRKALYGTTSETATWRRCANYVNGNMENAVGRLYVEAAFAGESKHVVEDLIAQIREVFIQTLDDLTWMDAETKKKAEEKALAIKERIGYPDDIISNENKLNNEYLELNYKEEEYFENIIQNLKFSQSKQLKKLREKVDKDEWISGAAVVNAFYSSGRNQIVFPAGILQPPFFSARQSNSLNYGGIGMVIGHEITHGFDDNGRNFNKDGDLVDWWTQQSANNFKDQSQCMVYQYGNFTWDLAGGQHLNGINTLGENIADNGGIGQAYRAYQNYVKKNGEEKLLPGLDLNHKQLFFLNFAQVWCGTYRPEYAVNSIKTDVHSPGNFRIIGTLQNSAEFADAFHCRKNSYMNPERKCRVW
Source text: An assay using novel fluorescent substrates for enkephalinase was developed to assess whether enkephalinase is expressed. This assay is based on the disappearance of energy transfer between a tryptophan or a tyrosine residue and the 5-dimethylaminonaphthalene-1-sulfonyl group (dansyl) in the substrates dansyl-Gly-Trp-Gly or dansyl-Gly-Tyr-Gly upon hydrolysis of their Gly-Trp or Gly-Tyr amide bond by enkephalinase. No significant difference in Km or kcat values were found for dansyl-Gly-Trp-Gly and dansyl-Gly-Tyr-Gly as the active site of enkephalinase appears to accommodate tryptophan residues similarly to tyrosine. The tryptophan and tyrosine containing substrates can be used for continuous recording of enkephalinase activity. […]
Fluorescence measurements were made using a Perkin Elmer, model 650-10S spectrofluorometer, equipped with a temperature controlled cell-holder, maintained at 37° C. […] The 600 μl mixture was transferred into a quartz cuvette, and fluorescence measured. […] The fluorescence in the incubation media could thus be related to the amounts of hydrolyzed substrates. […] Ten μl of purified rat kidney enkephalinase was added and the increase in tryptophan or tyrosine fluorescence was continuously monitored (excitation=280 nm, emission=360 nm for tryptophan, excitation 277, emission 315 for tyrosine). […] Under these conditions, tryptophan fluorescence was stable for over 2 hr.

B1: rat kidney enkephalinase: enkephalinase purified from rat kidney, fractions from the last Concanavalin-A step, about 90 Kdalton protein (protein, UniProt P07861 2-750, looked up)
Neprilysin: GRSESQMDITDINAPKPKKKQRWTPLEISLSVLVLLLTIIAVTMIALYATYDDGICKSSDCIKSAARLIQNMDASAEPCTDFFKYACGGWLKRNVIPETSSRYSNFDILRDELEVILKDVLQEPKTEDIVAVQKAKTLYRSCINESAIDSRGGQPLLTLLPDIYGWPVASQNWEQTYGTSWTAEKSIAQLNSKYGKKVLINFFVGTDDKNSTQHIIHFDQPRLGLPSRDYYECTGIYKEACTAYVDFMISVARLIRQEQRLPIDENQLSLEMNKVMELEKEIANATTKPEDRNDPMLLYNKMTLAKLQNNFSLEINGKPFSWSNFTNEIMSTVNINIQNEEEVVVYAPEYLTKLKPILTKYSPRDLQNLMSWRFIMDLVSSLSRNYKESRNAFRKALYGTTSETATWRRCANYVNGNMENAVGRLYVEAAFAGESKHVVEDLIAQIREVFIQTLDDLTWMDAETKKKAEEKALAIKERIGYPDDIISNENKLNNEYLELNYKEEEYFENIIQNLKFSQSKQLKKLREKVDKDEWISGAAVVNAFYSSGRNQIVFPAGILQPPFFSARQSNSLNYGGIGMVIGHEITHGFDDNGRNFNKDGDLVDWWTQQSANNFKDQSQCMVYQYGNFTWDLAGGQHLNGINTLGENIADNGGIGQAYRAYQNYVKKNGEEKLLPGLDLNHKQLFFLNFAQVWCGTYRPEYAVNSIKTDVHSPGNFRIIGTLQNSAEFADAFHCRKNSYMNPERKCRVW
[1]; six 1 ml fractions from the last Concanavalin-A step, measured at 25° C., ^3 H-(DAla^2, Leu^5)enkephalin as substrate
  enkephalinase activity, specific activity: 27.4 nmole/mg protein/min

B2: prENKsense: in vitro transcription/translation product of plasmid prENKsense (full length rat enkephalinase cDNA), rabbit reticulocyte lysate (protein, UniProt P07861 1-750, looked up)
chain: MGRSESQMDITDINAPKPKKKQRWTPLEISLSVLVLLLTIIAVTMIALYATYDDGICKSSDCIKSAARLIQNMDASAEPCTDFFKYACGGWLKRNVIPETSSRYSNFDILRDELEVILKDVLQEPKTEDIVAVQKAKTLYRSCINESAIDSRGGQPLLTLLPDIYGWPVASQNWEQTYGTSWTAEKSIAQLNSKYGKKVLINFFVGTDDKNSTQHIIHFDQPRLGLPSRDYYECTGIYKEACTAYVDFMISVARLIRQEQRLPIDENQLSLEMNKVMELEKEIANATTKPEDRNDPMLLYNKMTLAKLQNNFSLEINGKPFSWSNFTNEIMSTVNINIQNEEEVVVYAPEYLTKLKPILTKYSPRDLQNLMSWRFIMDLVSSLSRNYKESRNAFRKALYGTTSETATWRRCANYVNGNMENAVGRLYVEAAFAGESKHVVEDLIAQIREVFIQTLDDLTWMDAETKKKAEEKALAIKERIGYPDDIISNENKLNNEYLELNYKEEEYFENIIQNLKFSQSKQLKKLREKVDKDEWISGAAVVNAFYSSGRNQIVFPAGILQPPFFSARQSNSLNYGGIGMVIGHEITHGFDDNGRNFNKDGDLVDWWTQQSANNFKDQSQCMVYQYGNFTWDLAGGQHLNGINTLGENIADNGGIGQAYRAYQNYVKKNGEEKLLPGLDLNHKQLFFLNFAQVWCGTYRPEYAVNSIKTDVHSPGNFRIIGTLQNSAEFADAFHCRKNSYMNPERKCRVW
modifications: full-length in vitro translated
notes: in vitro transcription/translation product of plasmid prENKsense (full length rat enkephalinase cDNA), rabbit reticulocyte lysate
[2]
  enkephalinase activity of expressed material: did not have detectable activity

B3: Enkephalinase: Enkephalinase produced by the method of the instant invention, essentially pure (protein, UniProt P07861 2-750, looked up)
Neprilysin: GRSESQMDITDINAPKPKKKQRWTPLEISLSVLVLLLTIIAVTMIALYATYDDGICKSSDCIKSAARLIQNMDASAEPCTDFFKYACGGWLKRNVIPETSSRYSNFDILRDELEVILKDVLQEPKTEDIVAVQKAKTLYRSCINESAIDSRGGQPLLTLLPDIYGWPVASQNWEQTYGTSWTAEKSIAQLNSKYGKKVLINFFVGTDDKNSTQHIIHFDQPRLGLPSRDYYECTGIYKEACTAYVDFMISVARLIRQEQRLPIDENQLSLEMNKVMELEKEIANATTKPEDRNDPMLLYNKMTLAKLQNNFSLEINGKPFSWSNFTNEIMSTVNINIQNEEEVVVYAPEYLTKLKPILTKYSPRDLQNLMSWRFIMDLVSSLSRNYKESRNAFRKALYGTTSETATWRRCANYVNGNMENAVGRLYVEAAFAGESKHVVEDLIAQIREVFIQTLDDLTWMDAETKKKAEEKALAIKERIGYPDDIISNENKLNNEYLELNYKEEEYFENIIQNLKFSQSKQLKKLREKVDKDEWISGAAVVNAFYSSGRNQIVFPAGILQPPFFSARQSNSLNYGGIGMVIGHEITHGFDDNGRNFNKDGDLVDWWTQQSANNFKDQSQCMVYQYGNFTWDLAGGQHLNGINTLGENIADNGGIGQAYRAYQNYVKKNGEEKLLPGLDLNHKQLFFLNFAQVWCGTYRPEYAVNSIKTDVHSPGNFRIIGTLQNSAEFADAFHCRKNSYMNPERKCRVW
[1]; 20 nM ^3 H-(DAla^2, Leu^5)enkephalin as substrate, 25° C., 50 mM pH 7.4 HEPES buffer containing 0.02% Tween 20
  specific activity: at least 25 nmole/mg protein/min
